Assay results as given in the RNAGym collection of RNA variant scans (doi:10.1073/pnas.2313332121).
Fewer inactive variants are shown than the library holds.

B1: TPR 5TU (parent)
chain: GGAUCUUCUCGAUCUAACAAAAAAGACAAAUCUGCCACAAAGCUUGAGAGCAUCUUCGGAUGCAGAGGCGGCAGCCUUCGGUGGCGCGAUAGCGCCAACGUUCUCAACUAUGACACGCAAAACGCGUGCUCCGUUGAAUGGAGUUUAUCAUG

Variants of: B1
Experiment: polymerase ribozyme fitness, log enrichment relative to wild type (log ratio); higher = more active; in vitro selection for triplet polymerase activity
Outline: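 Mutant libraries for each subunit of a heterodimeric triplet polymerase ribozyme were made by PCR and then transcribed. Each library underwent one round of in vitro selection in triplicate: annealing with a biotinylated primer, the partner subunit and triplets, frozen incubation at −7 °C, gel excision of extended constructs, streptavidin-bead capture and RT-PCR. Input and output libraries were Illumina-sequenced, and only genotypes with ≥10 input reads and ≥1 read per output were kept. Fitness is the logarithm, base 2, of genotype enrichment over wild-type enrichment, computed from inverse-variance-weighted replicate averages.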

| Variant | polymerase ribozyme fitness (log ratio) |
| --- | --- |
| A73G C87A | -4.18 |
| A73G C87U | -1.55 |
| G74C C105U A107G | ≤ -4.2 |
| G71C C95A | ≤ -4.2 |
| A73U C99A C103G C114U C123G | ≤ -4.2 |
| G74A G84A A89G | ≤ -4.2 |
| C72U C96A C105U C132U | -1.29 |
| C75U C95G C96G | -3.09 |
| A73G A106C U111A U144A | ≤ -4.2 |
| G71U C93U U104G C149A | ≤ -4.2 |
| C72U C93U | -0.741 |
| G74A U77G | ≤ -4.2 |
| A73U C79U G88A A119G G124U C149A | ≤ -4.2 |
| G74U | -3.33 |
| G74C | -3.96 |
| G74A | -2.81 |
| C75U U134A | -1.13 |
| C76A C131G | -3.98 |
| C75U U144C | -0.607 |
| C75U A122U | -0.205 |
| C75U C93U G143U | -3.61 |
| A73G G83A | -1.72 |
| C72A A91U U145A | ≤ -4.2 |
| G74A A89C | ≤ -4.2 |

| Variant | polymerase ribozyme fitness (log ratio) |
| --- | --- |
| C72A C114A | ≤ -4.2 |
| G71U G92U G136A | -2.26 |
| C75A C95U A98U C103U U145G U146G | ≤ -4.2 |
| C75G C93U | -3.74 |
| A73U G80A C93U U146G | -3.03 |
| A73U C93U | -1.62 |
| A73U C93A | -3.39 |
| C75U A122G G124A C149U | -1.15 |
| C75U U78C G84A | -1.65 |
| A73C A142U | ≤ -4.2 |
| C75G C129U | ≤ -4.2 |
| C76A U82A C85G A106G A107U C108G C129A | ≤ -4.2 |
| C75G U82G A91C | ≤ -4.2 |
| G71C A119G | -3.01 |
| C75A G86U | ≤ -4.2 |
| C76A C85U U145C | -0.371 |
| A73U G83A | -1.97 |
| C75U G80C A107U | ≤ -4.2 |
| G74A U77A G92U G112U G124A | ≤ -4.2 |
| C75G U77A A91G A106U U134G | ≤ -4.2 |
| C72U G126U | -0.101 |
| C72G A91C | ≤ -4.2 |
| A73C A107G | ≤ -4.2 |
| C72U C96G U127C C131U G140U U151A | ≤ -4.2 |

| Variant | polymerase ribozyme fitness (log ratio) |
| --- | --- |
| A73U G92U G141A U145A | -3.24 |
| C76A A138U | -4.05 |
| C76A G83A | -2.85 |
| C75U A89C C95U | -0.65 |
| C76A C103U U134A | -4.15 |
| C76A G128C | -3.67 |
| C76A G84A | -0.957 |
| C75G C96U A120C | ≤ -4.2 |
| C75G G94C | -3.53 |
| C75G G94A | -4.08 |
| C72U G152A | -2.42 |
| C75A C95G C96U | ≤ -4.2 |
| G71U A147C | -3.65 |
| C75U U90C A91U C93G G94U A98C | ≤ -4.2 |
| A73G C118G C132G | ≤ -4.2 |
| A73G A142C | -1.76 |
| C75U C96A G128U | -3.56 |
| C76A U102G | ≤ -4.2 |
| C76A U104A C125A A142C U144A | ≤ -4.2 |
| C76A C96G | -1.51 |
| A73U G80U | -2.82 |
| C76A U77G C95U G100U | -4.15 |
| C75G C118U | -3.87 |
| C72A U77A G88C C93G U111G A137U U139G | ≤ -4.2 |

| Variant | polymerase ribozyme fitness (log ratio) |
| --- | --- |
| C75U G94C A122G U145A | -3.35 |
| A73U G81U A106G A115G A119U A147C | ≤ -4.2 |
| C75A C76U G86U A106U G126A U148C C149A | ≤ -4.2 |
| C76A C79U C125U G140U | ≤ -4.2 |
| C72U C87U C105A | -3.79 |
| A73G C79U C96U A142U | ≤ -4.2 |
| C76A C87U G92C A142G | ≤ -4.2 |
| C72G C85G | ≤ -4.2 |
| C75G C76G G81U C95G | ≤ -4.2 |
| C75U C93G | -3 |
| C75U C93U | -0.656 |
| G74A A106C A142C | ≤ -4.2 |
| G71U A91U A122G G143U U145C | ≤ -4.2 |
| C76A G94A | -0.598 |
| A73G G83U G84U | -1.48 |
| C76A | -0.118 |
| C75G G92C C123A | ≤ -4.2 |
| C75U G84U U148A | ≤ -4.2 |
| C72U C93G U130C G133C | ≤ -4.2 |
| C75U G92C C132A | ≤ -4.2 |
| A73U C85A | -2.44 |
| G74A U77G G83A | ≤ -4.2 |
| C75G C85U | -3.58 |
| C76A A98U | -0.0442 |

| Variant | polymerase ribozyme fitness (log ratio) |
| --- | --- |
| C76A C125G U144G | -2.22 |
| G71U C116U | -2.4 |
| A73U G94A G152C | ≤ -4.2 |
| A73C G86C U104C | ≤ -4.2 |
| C75G G84A | -3.93 |
| C75A C79U G94C | ≤ -4.2 |
| C75U A91G U104A U139A | ≤ -4.2 |
| G74A A150U | -2.61 |
| G71U G94C A110G | ≤ -4.2 |
| A73G C99U | -0.979 |
| C75A C103G | ≤ -4.2 |
| C76A G92A U134C | -3.62 |
| G74A G141U | -2.35 |
| G71C A91U C93U U104G | ≤ -4.2 |
| A73U C96G | -1.8 |
| A73G U104C | -0.284 |
| C76A C129G G136A | -3.95 |
| C72U C95U C96U U146A | -2.06 |
| C72U G143C | -3.23 |
| C75U G80C A91G A97U A122G | ≤ -4.2 |
| C75G G81A G92U C125G | ≤ -4.2 |
| C75U G128U | -3.28 |
| C75U G128A | -3.95 |
| C76A C105U | -2.47 |

| Variant | polymerase ribozyme fitness (log ratio) |
| --- | --- |
| A73G C87G U146G | ≤ -4.2 |
| C75U A121G | -0.596 |
| G71C C95U C132U G141A U146G | ≤ -4.2 |
| A73G C93A A110C U139A | ≤ -4.2 |
| C75U G86C A115U | -2.41 |
| C75U G84U U101C | -1.45 |
| G71A G86A | -3.5 |
| G71U A120G U146C | -2.36 |
| A73U C103G | ≤ -4.2 |
| A73C A91G C116U | ≤ -4.2 |
| C76A C99A | -4.05 |
| C72A G81U G83C C93U | ≤ -4.2 |
| C75U G94C A142C | -2.58 |
| C75U A91G | -3.07 |
| A73C G94A C95U U102C G126C G141U | ≤ -4.2 |
| A73G U134G | -2.2 |
| C72G G86C | ≤ -4.2 |
| G74A A91U G117U G141U | ≤ -4.2 |
| G74C U90C A91C U104G U130A | ≤ -4.2 |
| A73G A89U | -0.161 |
| G71U G83U | -3.48 |
| G71U G83C | -2.74 |
| C72U U90C C93A U104A U127A | ≤ -4.2 |
| C75U G94C G100U A107G | ≤ -4.2 |

| Variant | polymerase ribozyme fitness (log ratio) |
| --- | --- |
| C76A C96U U145G | -0.785 |
| A73G G126C | 0.529 |
| A73G G126U | -0.214 |
| C72U G86C C105A C114U G140U | ≤ -4.2 |
| C75U C93G A121U C123U | -2.27 |
| A73G C87G U101G U139C | ≤ -4.2 |
| A73U G83C G143C | ≤ -4.2 |
| A73G G84U | -1.29 |
| C72U G92A C116U U139G | -3.15 |
| A73U C96A U109A C116U | -3.64 |
| C72U A122G | -0.726 |
| G71U A89U U135A | ≤ -4.2 |
| G71U G84A | -2.59 |
| C76A A122G | -0.466 |
| C76A A122U | 0.592 |
| G74C C118U | -4.02 |
| A73U C75U C118G | ≤ -4.2 |
| C76A G152A | -2.86 |
| G71A G94A | -2.94 |
| G71C A91U G136C | ≤ -4.2 |
| C75U G92U C93G | -1.13 |
| A73U G133U A147C | ≤ -4.2 |
| G74C U82C | -4.05 |
